Source: PMC4720395, “Improvements in Glucose Sensitivity and Stability of Trichoderma reesei β-Glucosidase Using Site-Directed Mutagenesis” (PLoS ONE, 2016)

Tests used:
Cel1A (Bgl II) [1] = target: T1, Cel1A (Bgl II) (Trichoderma reesei, UniProt O93785, L2V/L167W/P172L); test: Dixon plot, pNPG hydrolysis, p-nitrophenol absorbance […] nm; type: biochemical; details: pNPG substrate (low concentrations), 100 mM acetate pH 5.5, 30°C; competitive; glucose also stimulates at higher pNPG; read-out: WT
T1 construct: gene bgl2; forward primer with NcoI site encodes N-terminus MVPKDFQW; GH1
T1 sequence (O93785 1-466 L2V/L167W/P172L): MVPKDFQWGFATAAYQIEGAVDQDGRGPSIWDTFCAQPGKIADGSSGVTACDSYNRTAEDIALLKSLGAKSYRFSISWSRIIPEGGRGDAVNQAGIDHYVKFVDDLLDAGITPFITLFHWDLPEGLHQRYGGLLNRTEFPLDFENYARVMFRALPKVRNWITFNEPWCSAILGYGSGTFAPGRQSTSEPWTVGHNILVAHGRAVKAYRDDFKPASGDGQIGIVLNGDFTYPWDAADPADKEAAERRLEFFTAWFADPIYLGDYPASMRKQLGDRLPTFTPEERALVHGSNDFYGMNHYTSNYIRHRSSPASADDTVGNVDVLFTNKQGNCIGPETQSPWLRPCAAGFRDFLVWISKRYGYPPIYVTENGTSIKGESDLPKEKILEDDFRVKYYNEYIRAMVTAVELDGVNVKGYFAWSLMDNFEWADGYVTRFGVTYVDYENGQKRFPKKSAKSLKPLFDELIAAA

Cel1A (Bgl II) [2] = target: T2, Cel1A (Bgl II) (Trichoderma reesei, UniProt O93785, L2V); test: as above; type: biochemical; details: pNPG substrate (low concentrations), 100 mM acetate pH 5.5, 30°C; competitive; read-out: WT
T2 construct: gene bgl2; forward primer with NcoI site encodes N-terminus MVPKDFQW; GH1
T2 sequence (O93785 1-466 L2V): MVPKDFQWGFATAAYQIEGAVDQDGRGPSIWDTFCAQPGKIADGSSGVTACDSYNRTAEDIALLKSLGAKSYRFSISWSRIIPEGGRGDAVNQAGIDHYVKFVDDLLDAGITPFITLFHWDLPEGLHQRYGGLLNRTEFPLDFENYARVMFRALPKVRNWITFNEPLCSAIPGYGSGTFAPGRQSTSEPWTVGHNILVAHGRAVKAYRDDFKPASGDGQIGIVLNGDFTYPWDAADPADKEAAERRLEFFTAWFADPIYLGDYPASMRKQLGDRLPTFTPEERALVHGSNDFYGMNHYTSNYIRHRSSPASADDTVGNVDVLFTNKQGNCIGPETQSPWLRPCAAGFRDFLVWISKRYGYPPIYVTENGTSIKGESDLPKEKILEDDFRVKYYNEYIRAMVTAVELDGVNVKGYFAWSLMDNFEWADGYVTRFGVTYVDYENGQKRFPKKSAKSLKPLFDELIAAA

purified protein = substrate: O=[N+]([O-])c1ccc(O[C@@H]2O[C@H](CO)[C@@H](O)[C@H](O)[C@H]2O)cc1; test: purified protein; type: biochemical, Trichoderma reesei; details: 100 mM acetate pH 5.5, 30°C, no glucose
[3] = substrate inhibition above 0.25 mM pNPG

Question: For `OC[C@H]1OC(O)[C@H](O)[C@@H](O)[C@@H]1O` (stereo partly drawn) [glucose], which Ki (Cel1A (Bgl II) [1]) is on record?
Answer: Its Ki is 50 mM.

Question: And the Ki (Cel1A (Bgl II) [2])?
Answer: The Ki was 50 mM.

B1: Cel1A (Bgl II) (Trichoderma reesei; L167W/L2V/P172L) (protein)
chain: MVPKDFQWGFATAAYQIEGAVDQDGRGPSIWDTFCAQPGKIADGSSGVTACDSYNRTAEDIALLKSLGAKSYRFSISWSRIIPEGGRGDAVNQAGIDHYVKFVDDLLDAGITPFITLFHWDLPEGLHQRYGGLLNRTEFPLDFENYARVMFRALPKVRNWITFNEPWCSAILGYGSGTFAPGRQSTSEPWTVGHNILVAHGRAVKAYRDDFKPASGDGQIGIVLNGDFTYPWDAADPADKEAAERRLEFFTAWFADPIYLGDYPASMRKQLGDRLPTFTPEERALVHGSNDFYGMNHYTSNYIRHRSSPASADDTVGNVDVLFTNKQGNCIGPETQSPWLRPCAAGFRDFLVWISKRYGYPPIYVTENGTSIKGESDLPKEKILEDDFRVKYYNEYIRAMVTAVELDGVNVKGYFAWSLMDNFEWADGYVTRFGVTYVDYENGQKRFPKKSAKSLKPLFDELIAAA
notes: forward primer with NcoI site encodes N-terminus MVPKDFQW; GH1
Question: Which Km (purified protein; [3]) does the source give for B1 here?
Answer: The Km was 230 ± 10 µM.

Question: And the Vmax (purified protein; [3])?
Answer: Its Vmax is 13.3 µmol/min/mg.

B2: Cel1A (Bgl II) (Trichoderma reesei; L2V) (protein)
chain: MVPKDFQWGFATAAYQIEGAVDQDGRGPSIWDTFCAQPGKIADGSSGVTACDSYNRTAEDIALLKSLGAKSYRFSISWSRIIPEGGRGDAVNQAGIDHYVKFVDDLLDAGITPFITLFHWDLPEGLHQRYGGLLNRTEFPLDFENYARVMFRALPKVRNWITFNEPLCSAIPGYGSGTFAPGRQSTSEPWTVGHNILVAHGRAVKAYRDDFKPASGDGQIGIVLNGDFTYPWDAADPADKEAAERRLEFFTAWFADPIYLGDYPASMRKQLGDRLPTFTPEERALVHGSNDFYGMNHYTSNYIRHRSSPASADDTVGNVDVLFTNKQGNCIGPETQSPWLRPCAAGFRDFLVWISKRYGYPPIYVTENGTSIKGESDLPKEKILEDDFRVKYYNEYIRAMVTAVELDGVNVKGYFAWSLMDNFEWADGYVTRFGVTYVDYENGQKRFPKKSAKSLKPLFDELIAAA
notes: as for B1
Question: How did the Km (purified protein) turn out when B2 was run?
Answer: The Km was 2480 ± 750 µM.

Question: What about the Vmax (purified protein) of the same molecule?
Answer: The Vmax was 7.7 µmol/min/mg.
